Legend:
[1] = target: BAX, recombinant human, wild type (human) (UniProt Q07812); assay: SEC
[2] = target: Alexa Fluor 488-labeled BAX^WT (human) (UniProt Q07812); assay: SEC

Row | Substance | stoichiometry N [1] | stoichiometry N [2]
1 | BAX, recombinant human, wild type (from UniProt Q07812 1-192) (natural protein) | 2 | 
2 | Alexa Fluor 488-labeled BAX^WT (from UniProt Q07812 1-192) (natural protein) |  | 2
